Results from patent US20070292447A1.

Target: CS40 anti-ManLAM monoclonal antibody
Experiment: competitive ELISA, ManLAM-coated plate, CS40 mixed with peptide; at 50 µg/ml peptide

B1: B11 synthetic peptide (…) (peptide)
peptide: ISLTEWSMWYRH
  decrease in OD (inhibition of CS40 binding to ManLAM): 100%
